This passage reports binding result and Kd results from publication PMC7261172, “Peptides containing the PCNA interacting motif APIM bind to the β-clamp and inhibit bacterial growth and mutagenesis” (Nucleic Acids Research, 2020).

A value given as a limit tells only on which side of the number the result lay.

Holding throughout (conditions): both partners purified
Assay [1] addresses T1, E. coli β-clamp, wild type, His-tagged (E. coli, UniProt P0A988 1-366).
T1 construct: β-clamp (β subunit of DNA polymerase III), product of the dnaN gene, E. coli; no cleavage is described; also called WT β-clamp; DNA sliding clamp; source: for NMR HisTrap FF and Superdex 200 SEC
Nature of the assay: NMR titration; 1D 1H NMR of the peptide with sub-stoichiometric β-clamp (100 or 50 μM peptide added 5 or 20 μM β-clamp); line broadening or loss of signal read; 298 K, 20 mM NaH2PO4, 100 mM NaCl, pH 7.4.

Assay [2] deals with T2, E. coli β-clamp M362D, His-tagged (E. coli, UniProt P0A988 1-366, M362D).
T2 construct: β-clamp, product of the dnaN gene, E. coli, with M362D; Made by site-directed mutagenesis of the plasmid of m1
Kind of assay: SPR; WT or mutant β-clamp immobilised by amine coupling on CM5 (about 2000 RU); octamer peptides at 4-128 μM, single-cycle; 25°C, 30 μl/min; PBS P+ (20 mM phosphate pH 7.4, 3 mM KCl, 137 mM NaCl, 0.05% P20); sensorgrams normalised to the immobilised level. (In general: Surface plasmon resonance follows binding to a sensor surface in real time, without labels.)

The target of assay [3] is T3, E. coli β-clamp P363D, His-tagged (E. coli, UniProt P0A988 1-366, P363D).
T3 construct: β-clamp, product of the dnaN gene, E. coli, with P363D; Made by site-directed mutagenesis of the plasmid of m1
The description is as above.

Assay [4] has as its target T4, E. coli β-clamp P242D, His-tagged (E. coli, UniProt P0A988 1-366, P242D).
T4 construct: β-clamp, product of the dnaN gene, E. coli, with P242D; Made by site-directed mutagenesis of the plasmid of m1
The assay is described as above.

The target of assay [5] is T5, E. coli β-clamp V151A, His-tagged (E. coli, UniProt P0A988 1-366, V151A).
T5 construct: β-clamp, product of the dnaN gene, E. coli, with V151A; Made by site-directed mutagenesis of the plasmid of m1
The assay is described as above.

In assay [6] the target is T6, E. coli β-clamp H148K, His-tagged (E. coli, UniProt P0A988 1-366, H148K).
T6 construct: β-clamp, product of the dnaN gene, E. coli, with H148K; Made by site-directed mutagenesis of the plasmid of m1
The description is as above.

In assay [7] the target is T7, E. coli β-clamp labelled with RED-maleimide dye (MST) (E. coli, UniProt P0A988 1-366, RED-maleimide fluorescent dye (RED-Maleimide Labelling Kit, NanoTemper); site not stated).
T7 construct: β-clamp (β subunit of DNA polymerase III), product of the dnaN gene, E. coli; it may or may not be the same His-tagged pET-16b construct as m1; also called fluorescent labeled β-clamp; Purified E.coli β-clamp; source: labelled with the RED-Maleimide Labelling Kit
Kind of assay: MST; β-clamp labelled with RED-maleimide (3 nM stock, diluted 1:1 with ligand); peptides in 16 1:1 dilutions from 500 μM to 15 nM; 50 mM Tris-HCl pH 7.5, 150 mM NaCl, 10 mM MgCl2, 2% fetal bovine serum; Monolith NT.115; change of fluorescence analysed.

For orientation: Kd means a measure of binding affinity in units of concentration.

B1: Pol III β-clamp binding peptide (Ac-EQVELEFD) (peptide)
peptide: Ac-EQVELEFD-NH2
modifications: also: TFA salt
notes: also called Pol III peptide; source: synthetic peptide; bought: Innovagen, Sweden
Take B1: the binding result in assay [1] is given as “binds”.

B2: Octamer APIM peptide RWLVK (Ac-MDRWLVKW) (peptide)
peptide: Ac-MDRWLVKW-NH2
modifications: also: TFA salt
notes: APIM motif RWLVK without the cell penetrating part; also called octamer peptide containing RWLVK; source: synthetic peptide; bought: Innovagen, Sweden
As for B2, the binding result in assay [1], in assay [2], in assay [3], in assay [4], in assay [5] and in assay [6] was “binds” in each case.

B3: Cell penetrating APIM-peptide RFSLK (Ac-MD-RFSLK-WKKKRKI-RRRRRRRRRRR) (peptide)
peptide: Ac-MDRFSLKWKKKRKIRRRRRRRRRRR-NH2
modifications: also: TFA salt
notes: APIM motif RFSLK, linker WKKKRKI, cell penetrating R11; TFA salt, >90% pure; also called RFSLK-peptide; source: synthetic peptide; bought: Innovagen, Sweden
For the molecule B3, in assay [7], the Kd is less than 50 µM.

B4: Cell penetrating APIM-peptide RWLVK (Ac-MD-RWLVK-WKKKRKI-RRRRRRRRRRR) (peptide)
peptide: Ac-MDRWLVKWKKKRKIRRRRRRRRRRR-NH2
modifications: also: TFA salt
notes: APIM motif RWLVK, linker WKKKRKI, cell penetrating R11; TFA salt, >90% pure; also called RWLVK-peptide; cell penetrating RWLVK-peptide; source: synthetic peptide; bought: Innovagen, Sweden
For the molecule B4, the Kd in assay [7] was less than 50 µM.

B5: Cell penetrating peptide with mutated APIM RALVK (Ac-MD-RALVK-WKKKRKI-RRRRRRRRRRR) (peptide)
peptide: Ac-MDRALVKWKKKRKIRRRRRRRRRRR-NH2
modifications: also: TFA salt
notes: mutated APIM RALVK, linker WKKKRKI, cell penetrating R11; TFA salt, >90% pure; also called RALVK-peptide; source: synthetic peptide; bought: Innovagen, Sweden
In assay [7], B5 registered a dissociation constant (Kd) of more than 750 µM.
